In FireProtDB (doi:10.1111/j.1432-1033.1991.tb16033.x):

B1: Ribonuclease HI, P0A7Y4 (parent)
chain: MLKQVEIFTDGSCLGNPGPGGYGAILRYRGREKTFSAGYTRTTNNRMELMAAIVALEALKEHCEVILSTDSQYVRQGITQWIHNWKKRGWKTADKKPVKNVDLWQRLDAALGQHQIKWEWVKGHAGHPENERCDELARAAAMNPTLEDTGYQVEV

Variants of: B1
Conditions: Escherichia coli (strain K12); pH 5.5; 25 °C; GdnHCl; Fluorescence; Sodium acetate 20 mM; NaCl 0.1 M; reversible: yes; structure 2RN2; whole UniProt chain shown

## MLKQVEIFTDGSCLGNPGPGGYGAILRYRGREKTFSAGYTRTTNNRMELMAAIVALEALKEHCEVILSTDSQYVRQGITQWIHNWKKRGWKTADKKPVKNVDLWQRLDAALGQHQIKWEWVKGHAGAPENERCDELARAAAMNPTLEDTGYQVEV [H127A]
  ddG of mutation (higher = less stable): 0.58 kcal/mol
  denaturant m value: 4.98 kcal/mol/M
  denaturant midpoint (higher = more stable): 1.74 M
  unfolding free energy: 8.68 kcal/mol

## MLKQVEIFTDGSCLGNPGPGGYGAILRYRGREKTFSAGYTRTTNNRMELMAAIVALEALKEHCEVILSTDSQYVRQGITQWIHNWKKRGWKTADKKPVKNVDLWQRLDAALGQAQIKWEWVKGHAGHPENERCDELARAAAMNPTLEDTGYQVEV [H114A]
  ddG of mutation (higher = less stable): 2.63 kcal/mol
  denaturant m value: 4.23 kcal/mol/M
  denaturant midpoint (higher = more stable): 1.57 M
  unfolding free energy: 6.63 kcal/mol

## MLKQVEIFTDGSCLGNPGPGGYGAILRYRGREKTFSAGYTRTTNNRMELMAAIVALEALKEACEVILSTDSQYVRQGITQWIHNWKKRGWKTADKKPVKNVDLWQRLDAALGQHQIKWEWVKGHAGHPENERCDELARAAAMNPTLEDTGYQVEV [H62A]
  ddG of mutation (higher = less stable): -0.38 kcal/mol
  denaturant m value: 5.19 kcal/mol/M
  denaturant midpoint (higher = more stable): 1.86 M
  unfolding free energy: 9.64 kcal/mol

## MLKQVEIFTDGSCLGNPGPGGYGAILRYRGREKTFSAGYTRTTNNRMELMAAIVALEALKEHCEVILSTDSQYVRQGITQWIHNWKKRGWKTADKKPVKNVDLWQRLDAALGQHQIKWEWVKGAAGHPENERCDELARAAAMNPTLEDTGYQVEV [H124A]
  ddG of mutation (higher = less stable): -0.48 kcal/mol
  denaturant m value: 5.36 kcal/mol/M
  denaturant midpoint (higher = more stable): 1.82 M
  unfolding free energy: 9.74 kcal/mol
